Laboratory results from paper PMC6739165.

Target: mCerulean-Hsp70 (UniProt P0DMV8)
Assay: FRET or BRET

UniProt P0DMV8, sequence (P0DMV8 whole entry): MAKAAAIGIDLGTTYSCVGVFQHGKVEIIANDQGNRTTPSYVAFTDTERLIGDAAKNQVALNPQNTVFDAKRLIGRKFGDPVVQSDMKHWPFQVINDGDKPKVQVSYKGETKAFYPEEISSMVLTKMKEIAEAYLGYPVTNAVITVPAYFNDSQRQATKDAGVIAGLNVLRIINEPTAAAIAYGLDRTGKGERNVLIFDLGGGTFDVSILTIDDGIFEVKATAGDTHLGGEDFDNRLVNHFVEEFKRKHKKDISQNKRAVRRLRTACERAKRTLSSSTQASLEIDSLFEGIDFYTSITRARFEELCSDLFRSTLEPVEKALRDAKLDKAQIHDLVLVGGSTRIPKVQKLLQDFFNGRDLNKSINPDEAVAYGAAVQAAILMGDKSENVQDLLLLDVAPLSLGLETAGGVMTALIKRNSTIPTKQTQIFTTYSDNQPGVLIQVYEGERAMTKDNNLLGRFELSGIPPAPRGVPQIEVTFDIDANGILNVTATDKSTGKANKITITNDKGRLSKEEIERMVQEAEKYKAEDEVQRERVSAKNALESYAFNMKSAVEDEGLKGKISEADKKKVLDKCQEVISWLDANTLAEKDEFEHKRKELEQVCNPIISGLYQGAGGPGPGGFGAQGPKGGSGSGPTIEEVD

percent FRET efficiency: 33%
Substance: mVenus-OLA1 (from UniProt Q9NTK5 1-396) (natural protein)
